Assay results from US20070178531A1 (BIOCHECK, published 2007).
Substitutions are numbered along the chain they refer to.

Tests used:
Human Id1: Histidine [1] = target: T1, Human Id1: Histidine (human, UniProt P41134 1-155, limits assumed); test: ELISA, Ab 0.050 µg/ml
T1 construct: Fusion protein made in E. coli from vector pGW07; also called h-Id1: his; not shown: His tag
T1 sequence (looked up): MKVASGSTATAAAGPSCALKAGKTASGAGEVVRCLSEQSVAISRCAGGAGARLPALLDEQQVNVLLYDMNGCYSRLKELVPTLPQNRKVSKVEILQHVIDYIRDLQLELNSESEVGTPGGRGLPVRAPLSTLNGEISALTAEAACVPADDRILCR

Mouse Id2: Histidine [2] = target: T2, Mouse Id2: Histidine (mouse, UniProt P41136 1-134, limits assumed); test: ELISA, Ab 0.050 µg/ml
T2 construct: Fusion protein made in E. coli from vector pGW07; also called m-Id2: His; not shown: His tag
T2 sequence (looked up): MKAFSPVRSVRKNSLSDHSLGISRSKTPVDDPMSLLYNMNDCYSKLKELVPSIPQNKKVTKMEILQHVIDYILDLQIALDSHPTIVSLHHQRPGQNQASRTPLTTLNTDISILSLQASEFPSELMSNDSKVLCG

Human Id2: Histidine [3] = target: T3, Human Id2: Histidine (human, UniProt Q02363 1-134, limits assumed); test: ELISA, Ab 0.050 µg/ml
T3 construct: Fusion protein made in E. coli from vector pGW07; also called h-Id2: His; not shown: His tag
T3 sequence (looked up): T2 sequence (looked up) with T60S, V131A

Mouse Id3: Histidine [4] = target: T4, Mouse Id3: Histidine (mouse, UniProt P41133 1-119); test: ELISA, Ab 0.050 µg/ml
T4 construct: Fusion protein made in E. coli from vector pGW07; also called m-Id3: His; Mouse Id3 (coated wells); not shown: His tag
T4 sequence: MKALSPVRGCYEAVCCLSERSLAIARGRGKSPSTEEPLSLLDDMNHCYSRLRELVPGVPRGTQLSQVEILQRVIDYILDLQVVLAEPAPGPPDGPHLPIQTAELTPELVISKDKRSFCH

Human Id3: Histidine [5] = target: T5, Human Id3: Histidine (human, UniProt Q02535 1-119 at identity 1.00)); test: ELISA, Ab 0.050 µg/ml
T5 construct: Fusion protein made in E. coli from vector pGW07; also called h-Id3: His; Human Id3 (coated wells); not shown: His tag
T5 chain: T4 sequence with S31G, S33A, T34A, T105A, K112N

Mouse Id1: Histidine [6] = target: T6, Mouse Id1: Histidine (mouse, UniProt P20067-2 1-148, limits assumed); test: ELISA, Ab 0.050 µg/ml
T6 construct: Fusion protein made in E. coli from vector pGW07; also called m-Id1-His; not shown: His tag
T6 sequence (looked up): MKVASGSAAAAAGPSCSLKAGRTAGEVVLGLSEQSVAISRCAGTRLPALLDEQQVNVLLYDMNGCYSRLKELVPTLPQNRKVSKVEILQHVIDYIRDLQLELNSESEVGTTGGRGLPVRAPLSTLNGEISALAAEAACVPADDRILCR

Human Id1: Histidine [7] = target: T1, Human Id1: Histidine; test: ELISA, Ab 0.100 µg/ml
Mouse Id2: Histidine [8] = target: T2, Mouse Id2: Histidine; test: ELISA, Ab 0.100 µg/ml
Human Id2: Histidine [9] = target: T3, Human Id2: Histidine; test: ELISA, Ab 0.100 µg/ml
Human Id3: Histidine [10] = target: T5, Human Id3: Histidine; test: ELISA, Ab 0.100 µg/ml
Mouse Id1: Histidine [11] = target: T6, Mouse Id1: Histidine; test: ELISA, Ab 0.100 µg/ml
Human Id1: Histidine [12] = target: T1, Human Id1: Histidine; test: ELISA, Ab 0.500 µg/ml
Mouse Id2: Histidine [13] = target: T2, Mouse Id2: Histidine; test: ELISA, Ab 0.500 µg/ml
Human Id2: Histidine [14] = target: T3, Human Id2: Histidine; test: ELISA, Ab 0.500 µg/ml
Mouse Id3: Histidine [15] = target: T4, Mouse Id3: Histidine; test: ELISA, Ab 0.500 µg/ml
Human Id3: Histidine [16] = target: T5, Human Id3: Histidine; test: ELISA, Ab 0.500 µg/ml
Mouse Id1: Histidine [17] = target: T6, Mouse Id1: Histidine; test: ELISA, Ab 0.500 µg/ml
Human Id1: Histidine [18] = target: T1, Human Id1: Histidine; test: ELISA on coated wells, summary
Mouse Id2: Histidine [19] = target: T2, Mouse Id2: Histidine; test: ELISA on coated wells, summary
Human Id4: Histidine = target: T7, Human Id4: Histidine (human, UniProt P47928 1-161, limits assumed); test: ELISA on coated wells, summary
T7 construct: Fusion protein made in E. coli from vector pGW07; also called h-Id4: His; not shown: His tag
T7 sequence (looked up): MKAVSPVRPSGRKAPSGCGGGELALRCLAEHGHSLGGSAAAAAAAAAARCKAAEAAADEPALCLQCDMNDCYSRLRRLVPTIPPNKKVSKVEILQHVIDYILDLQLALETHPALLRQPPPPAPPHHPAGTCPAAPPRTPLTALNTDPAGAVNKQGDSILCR

Mouse Id1: Histidine [20] = target: T6, Mouse Id1: Histidine; test: ELISA on coated wells, summary

B1: rabbit monoclonal anti-mouse/human Id3, clone #BCH-4/#6-1 (antibody, V domains shown)
VH: QSVEESGGRLVTPGTPLTLTCTASGFSLSNVYIHWVRQAPGKGLEWIGYISDGDTARYATWAKGRFTISKTSSTTVNLKMTSLTTEDTATYFCARQGFNIWGPGTLVTVSL
VL: AVLTQTPSPVSAAVGGTVSISCQSSQSVWNNNWLSWFQQKPGQPPKLLIYETSKLESGVPSRFKGSGSGTQFTLTISDVQCDDAATYYCLGGYWTTSDNNVFGGGTEVVVK
notes: Rabbit IgG from a rabbit hybridoma; also called m/h Id3 MoAb 6-1
- A450 (Human Id1: Histidine [1]): 0.091 A450
- A450 (Mouse Id2: Histidine [2]): 0.093 A450
- A450 (Human Id2: Histidine [3]): 0.086 A450
- A450 (Mouse Id3: Histidine [4]): 1.72 A450
- A450 (Human Id3: Histidine [5]): 1.52 A450
- A450 (Mouse Id1: Histidine [6]): 0.093 A450
- A450 (Human Id1: Histidine [7]): 0.083 A450
- A450 (Mouse Id2: Histidine [8]): 0.067 A450
- A450 (Human Id2: Histidine [9]): 0.058 A450
- A450 (Human Id3: Histidine [10]): 1.98 A450
- A450 (Mouse Id1: Histidine [11]): 0.085 A450
- A450 (Human Id1: Histidine [12]): 0.062 A450
- A450 (Mouse Id2: Histidine [13]): 0.073 A450
- A450 (Human Id2: Histidine [14]): 0.062 A450
- A450 (Mouse Id3: Histidine [15]): 3.47 A450
- A450 (Human Id3: Histidine [16]): 3.3 A450
- A450 (Mouse Id1: Histidine [17]): 0.067 A450

B2: rabbit monoclonal anti-human Id3, clone #BCH-4/#3-3 (antibody, V domains shown)
VH: QSVEESGGRLVTPGTPLTLTCTVSGIDLSSYAMSWVRQAPGKGLEWIGVIFPSNNVYYASWAKGRFTISKTSTTVDLKITSPTTEDTATYFCASMGAFDSWGPGTLVTVSS
VL: QVLTQTPSPVSAAVGGTVTINCQASQSIYNDNDLAWFQQKPGQPPKLLIYDASTLTSGVPSRFKGSGSGTQFTLTISDLDCDDAATYYCAARYSGNIYGFGGGTEVVVK
notes: Rabbit IgG from a rabbit hybridoma; also called h Id3 MoAb 3-3
- Cross-reactivity (%) (Human Id1: Histidine [18]): < 1%
- Cross-reactivity (%) (Mouse Id2: Histidine [19]): < 1%
- Cross-reactivity (%) (Human Id4: Histidine): < 1%
- Cross-reactivity (%) (Mouse Id1: Histidine [20]): < 1%
